The term Kd denotes a measure of binding affinity in units of concentration. For orientation: EC50 means the concentration at which the effect is half-maximal. Lower therefore signals greater potency.

Residue numbers refer to the chain shown, from its start. Numbers in names are those of the source.

B1: MAS-related GPR family member X2 (MRGPRX2), endogenous on ROSA mast cells (receptor, human (endogenous in ROSA), UniProt Q96LB1 1-330, looked up)
chain: MDPTTPAWGTESTTVNGNDQALLLLCGKETLIPVFLILFIALVGLVGNGFVLWLLGFRMRRNAFSVYVLSLAGADFLFLCFQIINCLVYLSNFFCSISINFPSFFTTVMTCAYLAGLSMLSTVSTERCLSVLWPIWYRCRRPRHLSAVVCVLLWALSLLLSILEGKFCGFLFSDGDSGWCQTFDFITAAWLIFLFMVLCGSSLALLVRILCGSRGLPLTRLYLTILLTVLVFLLCGLPFGIQWFLILWIWKDSDVLFCHIHPVSVVLSSLNSSANPIIYFFVGSFRKQWRLQQPILKLALQRALQDIAEVDHSEGCFRQGTPEMSRSSLV
notes: MAS-related GPR family member X2 (MRGPRX2), a GPCR, endogenously expressed at high levels on the ROSA mast cell line; source: endogenous, on ROSA mast cells (immortalized mast cell line)
B2: human N-terminal FLAG-tagged MRGPRX2, on transfected HEK293T cells (receptor, UniProt Q96LB1 1-330, looked up)
chain: B1 chain
notes: MRGPRX2, human, N-terminal FLAG-tagged, in a pcDNA3.1 expression vector; also called FLAG-MRGPRX2; wild type MRGPRX2; source: HEK293T, transiently transfected (pcDNA3.1), on cells; not shown: FLAG, N-terminal, kept
B3: Nanobody Sim4784 (rank 7), monomeric (monovalent format) (VHH)
VHH: QVQLQESGGGLVQAGGSLRLSCAASGTISPPTYMGWYRQAPGKERELVASIGAGSNTNYADSVKGRFTISRDNAKNTVYLQMNSLKPEDTAVYYCAAIFGRLWYHLYWGQGTQVTVSS
notes: source: E. coli BL21-DE3 (pET-26b), purified (protein A, Ni-NTA); not shown: V5, C-terminal, kept
B4: Nanobody Sim9877 (rank 5), monomeric (monovalent format) (VHH)
VHH: QVQLQESGGGLVQAGGSLRLSCAASGYISSFPVMGWYRQAPGKERELVAAIGSGGITYYADSVKGRFTISRDNAKNTVYLQMNSLKPEDTAVYYCAVAGYNIGSYYYWGQGTQVTVSS
notes: as for B3
B5: Nanobody Sim8619 (rank 1) with an R102A mutation (VHH)
VHH: QVQLQESGGGLVQAGGSLRLSCAASGSIFYIRGMGWYRQAPGKERELVAGIDVGAITYYADSVKGRFTISRDNAKNTVYLQMNSLKPEDTAVYYCAVWAYTAAGYTTVYAYWGQGTQVTVSS
notes: as the nanobody of m5 (Sim8619); the ROSA cell assay is told only for Fc fusions, nanobody variants are told as monomers from E. coli; also called R102A mutant; Sim8619 R102A
B6: Nanobody Sim8619 (rank 1), monomeric (monovalent format) (VHH)
VHH: B5 VHH with A102R
notes: as for B3

Common to all, as to conditions: one partner purified
Assay [1] deals with T1, Nanobody Sim4784 (rank 7), human IgG1 Fc fusion.
T1 construct: (GGS)3 linker between the nanobody and the Fc; cloned into pFUSE-CHIg-hG1 with H435A in the Fc; source: Expi293F, transiently transfected, purified (protein A); not shown: Fc (human IgG1, H435A), C-terminal, kept
Briefly: flow cytometry on cells; dose response of nanobody on ROSA mast cells (100,000 cells per well), 30 min at 4 °C; anti-human IgG Fc-AF488; MFI; for Kd the non-specific signal was the MFI with Nb 60.

For assay [2], the target named is T2, Nanobody Sim9877 (rank 5), human IgG1 Fc fusion.
T2 construct: (GGS)3 linker between the nanobody and the Fc; cloned into pFUSE-CHIg-hG1 with H435A in the Fc; also called Nb Sim9877; source: Expi293F, transiently transfected, purified (protein A); not shown: Fc (human IgG1, H435A), C-terminal, kept
Described as above.

Assay [3] deals with T3, Nanobody Sim8619 (rank 1), human IgG1 Fc fusion.
T3 construct: (GGS)3 linker between the nanobody and the Fc; cloned into pFUSE-CHIg-hG1 with H435A in the Fc; also called Nb Sim 8619; source: Expi293F, transiently transfected, purified (protein A); not shown: Fc (human IgG1, H435A), C-terminal, kept
The assay is described as above.

Assay [4] addresses T1, Nanobody Sim4784 (rank 7), human IgG1 …. Briefly: flow cytometry on cells; nanobody-Fc at the indicated concentrations, 1 h at 4 °C, on HEK293T cells transfected with FLAG-MRGPRX2, MRGPRX2 E164A D184A or empty vector; HBS + 2% FBS + 0.05% BSA; anti-human Fc-AF647; non-specific signal from empty-vector cells.
In assay [5] the target is T2, Nanobody Sim9877 (rank 5), human IgG1 …. Described as above.
For assay [6], the target named is T3, Nanobody Sim8619 (rank 1), human IgG1 …. The assay is described as above.
The target of assay [7] is T4, FLAG-MC4R, on transfected HEK293T cells (Homo sapiens (Human)., UniProt P32245).
T4 construct: source: HEK293T, transiently transfected, on cells
Briefly: flow cytometry on cells; monomeric nanobody or variant with V5 tag, 1-2 h at 4 °C, on HEK293T cells transfected with FLAG-MRGPRX2, FLAG-MC4R, FLAG-CXCR3 or empty vector; HBS + 0.1% BSA + 2 mM calcium; anti-V5-APC. For orientation: Flow cytometry measures light scatter and fluorescence of single cells or particles in a stream.

Assay [8] addresses B2. The assay is described as above.
Assay [9] has as its target B1. Briefly: flow cytometry on cells; dose response of nanobody on ROSA mast cells (100,000 cells per well), 30 min at 4 °C; anti-human IgG Fc-AF488; MFI; for Kd the non-specific signal was the MFI with Nb 60.

T4 sequence (P32245 whole entry): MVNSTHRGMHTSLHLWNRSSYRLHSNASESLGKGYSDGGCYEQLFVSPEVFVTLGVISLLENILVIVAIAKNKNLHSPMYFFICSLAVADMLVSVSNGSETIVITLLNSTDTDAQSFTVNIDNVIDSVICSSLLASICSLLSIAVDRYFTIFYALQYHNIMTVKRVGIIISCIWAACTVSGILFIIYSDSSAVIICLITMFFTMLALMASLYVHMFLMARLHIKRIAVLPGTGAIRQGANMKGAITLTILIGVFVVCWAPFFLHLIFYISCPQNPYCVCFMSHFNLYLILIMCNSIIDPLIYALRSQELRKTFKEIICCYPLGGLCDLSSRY

As to B1, the Kd in assay [1] was found to be 50 nM; in assay [2] it was 20 nM; in assay [3] it was 100 nM.

As to B2, the results for the Kd in assay [4], in assay [5] and in assay [6] were 80 nM, 160 nM and 200 nM, respectively.

In the case of B3, the binding result in assay [7] and in assay [8] was “binds” each time.

B4: the binding result in [8] is “binds”.

The molecule B5 came in with an EC50 in assay [9] of 210 nM.

For B6, the binding result in assay [8] was “binds”.

These data come from publication PMC13315262, “In silico discovery of nanobody binders to a G-protein coupled receptor using AlphaFold-Multimer” (Nature Communications, 2026).
